The assay addresses His10-pA-Tn5 (His10-tagged protein A-Tn5 transposase fusion) (not stated | Escherichia coli). The assay can be described thus: SEC; HiLoad 16/600 Superdex 200 pg after Ni-NTA; buffer C: 50 mM Tris-HCl pH 7.5, 800 mM NaCl, 0.2 mM EDTA, 2 mM DTT, 10% (v/v) glycerol; fractions checked by SDS-PAGE and 260 nm/280 nm ratio. (Size exclusion chromatography separates by hydrodynamic size, large species first.)

One may read the stoichiometry N as the number of molecules, sites or subunits per partner or assembly. Turning to “His10-pA-Tn5 (His10-tagged protein A-Tn5 transposase fusion) (enzyme)”, the stoichiometry N turned out to be 2.
